Measured values reported in patent US20240398902A1.

What was measured:
[1] = target: Type I IFN receptor (IFNAR1 and IFNAR2) on HEK-Blue 293 reporter cells (UniProt P17181); test: cell-based or functional assay
[2] = target: Type II IFN receptor (IFNGR1 and IFNGR2) on HEK-Blue 293 reporter cells (UniProt P15260); test: cell-based or functional assay
Type II IFN receptor (IFNGR1 and IFNGR2) on HEK-Blue 293 reporter cells, sequence (P15260 18-489 limits assumed, chain 1 of 2): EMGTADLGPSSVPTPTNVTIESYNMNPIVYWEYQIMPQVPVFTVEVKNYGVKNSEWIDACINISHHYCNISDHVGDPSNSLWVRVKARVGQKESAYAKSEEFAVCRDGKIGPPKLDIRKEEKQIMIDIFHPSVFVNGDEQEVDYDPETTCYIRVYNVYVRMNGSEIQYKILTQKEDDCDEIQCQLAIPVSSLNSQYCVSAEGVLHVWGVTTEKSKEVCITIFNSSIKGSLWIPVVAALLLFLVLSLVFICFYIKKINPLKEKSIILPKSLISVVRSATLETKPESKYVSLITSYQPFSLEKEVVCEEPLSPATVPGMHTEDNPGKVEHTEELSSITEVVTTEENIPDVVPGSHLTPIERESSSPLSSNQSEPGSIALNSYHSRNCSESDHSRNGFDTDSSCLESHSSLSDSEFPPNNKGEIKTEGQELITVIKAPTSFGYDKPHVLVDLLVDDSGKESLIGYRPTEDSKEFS
Type II IFN receptor (IFNGR1 and IFNGR2) on HEK-Blue 293 reporter cells, sequence (P38484 22-337 limits assumed, chain 2 of 2, further chain): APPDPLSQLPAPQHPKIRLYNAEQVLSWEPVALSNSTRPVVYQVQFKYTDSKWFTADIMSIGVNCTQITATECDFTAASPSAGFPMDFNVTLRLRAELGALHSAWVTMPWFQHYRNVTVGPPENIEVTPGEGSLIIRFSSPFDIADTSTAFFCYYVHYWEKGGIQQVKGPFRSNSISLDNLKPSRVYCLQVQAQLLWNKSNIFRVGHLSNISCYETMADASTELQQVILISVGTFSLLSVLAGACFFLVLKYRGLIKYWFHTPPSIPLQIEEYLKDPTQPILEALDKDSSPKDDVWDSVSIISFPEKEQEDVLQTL

Type I IFN receptor (IFNAR1 and IFNAR2) on HEK-Blue 293 reporter cells, sequence (P17181 28-557 limits assumed, chain 1 of 2): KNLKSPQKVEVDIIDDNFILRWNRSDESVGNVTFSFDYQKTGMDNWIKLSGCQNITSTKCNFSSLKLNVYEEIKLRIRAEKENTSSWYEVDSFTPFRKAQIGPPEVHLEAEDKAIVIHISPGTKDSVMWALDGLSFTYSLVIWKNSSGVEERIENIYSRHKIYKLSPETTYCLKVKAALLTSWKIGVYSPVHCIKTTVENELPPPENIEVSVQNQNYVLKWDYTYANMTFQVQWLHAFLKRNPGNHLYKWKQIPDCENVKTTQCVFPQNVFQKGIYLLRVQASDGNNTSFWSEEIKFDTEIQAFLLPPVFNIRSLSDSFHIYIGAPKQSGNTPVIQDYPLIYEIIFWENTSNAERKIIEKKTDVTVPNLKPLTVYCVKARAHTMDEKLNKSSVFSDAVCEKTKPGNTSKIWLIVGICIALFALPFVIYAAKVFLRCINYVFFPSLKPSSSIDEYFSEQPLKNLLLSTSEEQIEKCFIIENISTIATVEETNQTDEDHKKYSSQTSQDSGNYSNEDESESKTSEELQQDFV
Type I IFN receptor (IFNAR1 and IFNAR2) on HEK-Blue 293 reporter cells, sequence (P48551 27-515 limits assumed, chain 2 of 2, further chain): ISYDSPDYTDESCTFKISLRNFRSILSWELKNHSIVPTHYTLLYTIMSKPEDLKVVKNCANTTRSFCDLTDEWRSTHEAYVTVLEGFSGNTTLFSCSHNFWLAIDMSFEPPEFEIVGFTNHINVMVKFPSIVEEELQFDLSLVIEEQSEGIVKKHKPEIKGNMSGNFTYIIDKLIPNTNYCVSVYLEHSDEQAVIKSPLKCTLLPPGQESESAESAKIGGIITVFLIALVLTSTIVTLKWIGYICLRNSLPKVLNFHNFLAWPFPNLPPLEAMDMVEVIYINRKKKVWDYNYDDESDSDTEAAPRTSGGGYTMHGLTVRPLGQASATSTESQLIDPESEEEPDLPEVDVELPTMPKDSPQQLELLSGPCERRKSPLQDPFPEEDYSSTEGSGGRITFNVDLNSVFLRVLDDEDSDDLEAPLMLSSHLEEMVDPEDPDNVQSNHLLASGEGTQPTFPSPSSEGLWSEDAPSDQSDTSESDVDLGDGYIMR

Substance | EC50 of SEAP reporter response, HEK-Blue IFN reporter cells [1] | MHC I (HLA I) expression, MFI by FACS against untreated 293T cells (fold increase) [1] | EC50 of SEAP reporter response, HEK-Blue IFN reporter cells [2]
soluble IFNβ (from UniProt P01574 22-187) (ligand) | 0.9 pM | 9 | –
soluble IFNγ (from UniProt P01579 24-166) (ligand) | – | – | 7.1 pM
